In US20230407373A1 (priority 2020, published 2023):
Like-named read-outs stand apart in the source and are kept apart here.

B1: MBNL2 (protein, UniProt Q5VZF2 1-373, looked up)
Muscleblind-like protein 2: MALNVAPVRDTKWLTLEVCRQFQRGTCSRSDEECKFAHPPKSCQVENGRVIACFDSLKGRCSRENCKYLHPPTHLKTQLEINGRNNLIQQKTAAAMLAQQMQFMFPGTPLHPVPTFPVGPAIGTNTAISFAPYLAPVTPGVGLVPTEILPTTPVIVPGSPPVTVPGSTATQKLLRTDKLEVCREFQRGNCARGETDCRFAHPADSTMIDTSDNTVTVCMDYIKGRCMREKCKYFHPPAHLQAKIKAAQHQANQAAVAAQAAAAAATVMAFPPGALHPLPKRQALEKSNGTSAVFNPSVLHYQQALTSAQLQQHAAFIPTGSVLCMTPATSIDNSEIISRNGMECQESALRITKHCYCTYYPVSSSIELPQTAC
B2: ATXN2L: host protein, UniProt Q8WWM7 (protein, UniProt Q8WWM7 1-1075, looked up)
Ataxin-2-like protein: MLKPQPLQQPSQPQQPPPTQQAVARRPPGGTSPPNGGLPGPLATSAAPPGPPAAASPCLGPVAAAGSGLRRGAEGILAPQPPPPQQHQERPGAAAIGSARGQSTGKGPPQSPVFEGVYNNSRMLHFLTAVVGSTCDVKVKNGTTYEGIFKTLSSKFELAVDAVHRKASEPAGGPRREDIVDTMVFKPSDVMLVHFRNVDFNYATKDKFTDSAIAMNSKVNGEHKEKVLQRWEGGDSNSDDYDLESDMSNGWDPNEMFKFNEENYGVKTTYDSSLSSYTVPLEKDNSEEFRQRELRAAQLAREIESSPQYRLRIAMENDDGRTEEEKHSAVQRQGSGRESPSLASREGKYIPLPQRVREGPRGGVRCSSSRGGRPGLSSLPPRGPHHLDNSSPGPGSEARGINGGPSRMSPKAQRPLRGAKTLSSPSNRPSGETSVPPPPAVGRMYPPRSPKSAAPAPISASCPEPPIGSAVPTSSASIPVTSSVSDPGVGSISPASPKISLAPTDVKELSTKEPGRTLEPQELARIAGKVPGLQNEQKRFQLEELRKFGAQFKLQPSSSPENSLDPFPPRILKEEPKGKEKEVDGLLTSEPMGSPVSSKTESVSDKEDKPPLAPSGGTEGPEQPPPPCPSQTGSPPVGLIKGEDKDEGPVAEQVKKSTLNPNAKEFNPTKPLLSVNKSTSTPTSPGPRTHSTPSIPVLTAGQSGLYSPQYISYIPQIHMGPAVQAPQMYPYPVSNSVPGQQGKYRGAKGSLPPQRSDQHQPASAPPMMQAAAAAGPPLVAATPYSSYIPYNPQQFPGQPAMMQPMAHYPSQPVFAPMLQSNPRMLTSGSHPQAIVSSSTPQYPSAEQPTPQALYATVHQSYPHHATQLHAHQPQPATTPTGSQPQSQHAAPSPVQHQAGQAPHLGSGQPQQNLYHPGALTGTPPSLPPGPSAQSPQSSFPQPAAVYAIHHQQLPHGFTNMAHVTQAHVQTGITAAPPPHPGAPHPPQVMLLHPPQSHGGPPQGAVPQSGVPALSASTPSPYPYIGHPQGEQPGQAPGFPGGADDRIREFSLAGGIWHGRAEGLQVGQDARVLGGE
B3: PA2G4 (protein, UniProt Q9UQ80 2-394, looked up)
Proliferation-associated …: SGEDEQQEQTIAEDLVVTKYKMGGDIANRVLRSLVEASSSGVSVLSLCEKGDAMIMEETGKIFKKEKEMKKGIAFPTSISVNNCVCHFSPLKSDQDYILKEGDLVKIDLGVHVDGFIANVAHTFVVDVAQGTQVTGRKADVIKAAHLCAEAALRLVKPGNQNTQVTEAWNKVAHSFNCTPIEGMLSHQLKQHVIDGEKTIIQNPTDQQKKDHEKAEFEVHEVYAVDVLVSSGEGKAKDAGQRTTIYKRDPSKQYGLKMKTSRAFFSEVERRFDAMPFTLRAFEDEKKARMGVVECAKHELLQPFNVLYEKEGEFVAQFKFTVLLMPNGPMRITSGPFEPDLYKSEMEVQDAELKALLQSSASRKTQKKKKKKASKTAENATSGETLEENEAGD
B4: HNRNPA1L2 (protein, UniProt Q32P51 1-320, looked up)
Heterogeneous nuclear …: MSKSASPKEPEQLRKLFIGGLSFETTDESLRSHFEQWGTLTDCVVMRDPNTKRSRGFGFVTYATVEEVDAAMNTTPHKVDGRVVEPKRAVSREDSQRPGAHLTVKKIFVGGIKEDTEEHHLRDYFEQYGKIEVIEIMTDRGSGKKRGFAFVTFDDHDSVDKIVIQKYHTVKGHNCEVRKALPKQEMASASSSQRGRRGSGNFGGGRGDGFGGNDNFGRGGNFSGRGGFGGSCGGGGYGGSGDGYNGFGNDGSNFGGGGSYNDFGNYNNQSSNFGPMKGGNFGGRSSGPYGGGGQYFAKPQNQGGYGVSSSSSSYGSGRRF
B5: TRA2A (protein, UniProt Q13595 2-282, looked up)
Transformer-2 protein homolog …: SDVEENNFEGRESRSQSKSPTGTPARVKSESRSGSRSPSRVSKHSESHSRSRSKSRSRSRRHSHRRYTRSRSHSHSHRRRSRSRSYTPEYRRRRSRSHSPMSNRRRHTGSRANPDPNTCLGVFGLSLYTTERDLREVFSRYGPLSGVNVVYDQRTGRSRGFAFVYFERIDDSKEAMERANGMELDGRRIRVDYSITKRAHTPTPGIYMGRPTHSGGGGGGGGGGGGGGGGRRRDSYYDRGYDRGYDRYEDYDYRYRRRSPSPYYSRYRSRSRSRSYSPRRY
B6: PABPN1 (protein, UniProt Q86U42 2-306, looked up)
Polyadenylate-binding protein …: AAAAAAAAAAGAAGGRGSGPGRRRHLVPGAGGEAGEGAPGGAGDYGNGLESEELEPEELLLEPEPEPEPEEEPPRPRAPPGAPGPGPGSGAPGSQEEEEEPGLVEGDPGDGAIEDPELEAIKARVREMEEEAEKLKELQNEVEKQMNMSPPPGNAGPVIMSIEEKMEADARSIYVGNVDYGATAEELEAHFHGCGSVNRVTILCDKFSGHPKGFAYIEFSDKESVRTSLALDESLFRGRQIKVIPKRTNRPGISTTDRGFPRARYRARTTNYNSSRSRFYSGFNSRPRGRVYRGRARATSWYSPY
B7: PPP1CB (protein, UniProt P62140 2-327, looked up)
Serine/threonine-protein …: ADGELNVDSLITRLLEVRGCRPGKIVQMTEAEVRGLCIKSREIFLSQPILLELEAPLKICGDIHGQYTDLLRLFEYGGFPPEANYLFLGDYVDRGKQSLETICLLLAYKIKYPENFFLLRGNHECASINRIYGFYDECKRRFNIKLWKTFTDCFNCLPIAAIVDEKIFCCHGGLSPDLQSMEQIRRIMRPTDVPDTGLLCDLLWSDPDKDVQGWGENDRGVSFTFGADVVSKFLNRHDLDLICRAHQVVEDGYEFFAKRQLVTLFSAPNYCGEFDNAGGMMSVDETLMCSFQILKPSEKKAKYQYGGLNSGRPVTPPRTANPPKKR
B8: PGK2 (protein, UniProt P07205 2-417, looked up)
Phosphoglycerate kinase 2: SLSKKLTLDKLDVRGKRVIMRVDFNVPMKKNQITNNQRIKASIPSIKYCLDNGAKAVVLMSHLGRPDGVPMPDKYSLAPVAVELKSLLGKDVLFLKDCVGAEVEKACANPAPGSVILLENLRFHVEEEGKGQDPSGKKIKAEPDKIEAFRASLSKLGDVYVNDAFGTAHRAHSSMVGVNLPHKASGFLMKKELDYFAKALENPVRPFLAILGGAKVADKIQLIKNMLDKVNEMIIGGGMAYTFLKVLNNMEIGASLFDEEGAKIVKDIMAKAQKNGVRITFPVDFVTGDKFDENAQVGKATVASGISPGWMGLDCGPESNKNHAQVVAQARLIVWNGPLGVFEWDAFAKGTKALMDEIVKATSKGCITVIGGGDTATCCAKWNTEDKVSHVSTGGGASLELLEGKILPGVEALSNM
B9: MYEF2 (protein, UniProt Q9P2K5 1-600, looked up)
Myelin expression factor 2: MADANKAEVPGATGGDSPHLQPAEPPGEPRREPHPAEAEKQQPQHSSSSNGVKMENDESAKEEKSDLKEKSTGSKKANRFHPYSKDKNSGAGEKKGPNRNRVFISNIPYDMKWQAIKDLMREKVGEVTYVELFKDAEGKSRGCGVVEFKDEEFVKKALETMNKYDLSGRPLNIKEDPDGENARRALQRTGGSFPGGHVPDMGSGLMNLPPSILNNPNIPPEVISNLQAGRLGSTIFVANLDFKVGWKKLKEVFSIAGTVKRADIKEDKDGKSRGMGTVTFEQAIEAVQAISMFNGQFLFDRPMHVKMDDKSVPHEEYRSHDGKTPQLPRGLGGIGMGLGPGGQPISASQLNIGGVMGNLGPGGMGMDGPGFGGMNRIGGGIGFGGLEAMNSMGGFGGVGRMGELYRGAMTSSMERDFGRGDIGINQGFGDSFGRLGSAMIGGFAGRIGSSNMGPVGSGISGGMGSMNSVTGGMGMGLDRMSSSFDRMGPGIGAILERSIDMDRGFLSGPMGSGMRERIGSKGNQIFVRNLPFDLTWQKLKEKFSQCGHVMFAEIKMENGKSKGCGTVRFDSPESAEKACRIMNGIKISGREIDVRLDRNA

What was measured:
Assay type in all cases: binding
SARS-CoV-2 gRNA = settings: for target (unweighted spectral count of the protein in the RNP capture): LC-MS/MS, Probe I sample (first 199 lines of Table 2)
[1] = system: SARS-CoV-2 gRNA and sgRNAs; settings: for target (unweighted spectral count in RNP capture): Probe II capture, LC-MS/MS LFQ; for background (unweighted spectral count in control): no-probe control pull-down, used as background for Probe II; for target (unweighted spectral count of the protein in the RNP capture experiment): LC-MS/MS label-free quantification, probe pool not given; for back-ground (unweighted spectral count of the protein in the control experiment): protein background of the control (e.g. no-probe) experiment
HCoV-OC43 gRNA and sgRNA = settings: for target (unweighted spectral count, OC43 Probe II capture) / target (unweighted spectral count): tested against no-probe control; for target (unweighted spectral count, OC43 Probe II capture): FDR<10%; for target (unweighted spectral count): OC43 Probe II, infected cells; for target (unweighted spectral count, OC43 Probe II) / background (unweighted spectral count, no-probe control): type n_48_v, 48 hpi; for target (unweighted spectral count, OC43 Probe II): OC43 Probe II capture on infected cells; for background (unweighted spectral count, no-probe control): no-probe control on infected cells

Row | Molecule | target (unweighted spectral count of the protein in the RNP capture) (SARS-CoV-2 gRNA; […]) | target (unweighted spectral count in RNP capture) [1] | background (unweighted spectral count in control) [1] | further results
1 | B1 | 7 | 7 | 1 | 
2 | B2 | 9 | 28 | 1 | target (unweighted spectral count, OC43 Probe II capture) (HCoV-OC43 gRNA and sgRNA; 36 hpi, type n_36_v): 10; target (unweighted spectral count) (HCoV-OC43 gRNA and sgRNA; 12 hpi (type n_12_v)): 4; target (unweighted spectral count) (HCoV-OC43 gRNA and sgRNA; 24 hpi (type n_24_v)): 6; target (unweighted spectral count, OC43 Probe II) (HCoV-OC43 gRNA and sgRNA): 12; background (unweighted spectral count, no-probe control) (HCoV-OC43 gRNA and sgRNA): 1; target (spectral count) (HCoV-OC43 gRNA and sgRNA; type s_36_m, HCoV-OC43-infected HCT-8 cells, 36 hpi, Probe II): 10; background (spectral count) (HCoV-OC43 gRNA and sgRNA; type s_36_m, uninfected-probe control, 36 hpi, Probe II): 1
3 | B3 | 7 |  |  | target (unweighted spectral count of the protein in the RNP capture experiment) [1]: 5; back-ground (unweighted spectral count of the protein in the control experiment) [1]: 1
4 | B4 | 6 | 8 | 1 | 
5 | B5 | 6 | 7 | 1 | 
6 | B6 | 12 | 11 | 1 | target (unweighted spectral count, OC43 Probe II capture) (HCoV-OC43 gRNA and sgRNA; 24 hpi, type n_24_v): 5; target (unweighted spectral count, OC43 Probe II) (HCoV-OC43 gRNA and sgRNA): 8; background (unweighted spectral count, no-probe control) (HCoV-OC43 gRNA and sgRNA): 2
7 | B7 | 17 | 24 | 4 | 
8 | B8 |  |  |  | target (unweighted spectral count in RNP capture) (SARS-CoV-2 gRNA; Probe I capture, […], LC-MS/MS LFQ): 5; background (unweighted spectral count in control) (SARS-CoV-2 gRNA; no-probe control pull-down, used as background for Probe I): 1; target (unweighted spectral count of the protein in the RNP capture experiment) [1]: 5; back-ground (unweighted spectral count of the protein in the control experiment) [1]: 1
9 | B9 | 19 |  | 1 | 
